Reference: the supplement of paper PMC10567573
± gives the standard deviation.

Experiment: protein stability index of a GFP-peptide fusion (GPS, HEK-293T) (PSI 1-6); higher = more stable
[1] = treatment: DMSO, c terminus: native
[2] = treatment: MLN4924 1 uM, 8 h, c terminus: native
[3] = treatment: DMSO, c terminus: a fixed tail appended
[4] = treatment: MLN4924 1 uM, 8 h, c terminus: a fixed tail appended
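Also: 24-mer peptide tiles fused after GFP, lentivirally expressed, FACS-sorted into six equal bins by GFP/DsRed ratio, decoded by Illumina sequencing, PSI is the read-weighted mean bin number.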

Sequence	protein stability index [1]	protein stability index [2]	protein stability index [3]	protein stability index [4]
FHINQTLREAHFHSLQHRGRPLT [FAM104A]	2.3 ± 0.45	2.2 ± 0.29	–	–
FHYLVFDLVTGGELFEDIVAREYY [CAMK2B]	–	–	3.21 ± 0.4	3.05 ± 1
FKAHKSVLAARSPVFNAMFEHEME [SPOPL]	–	–	3.17 ± 0.41	3.17 ± 0.32
FKLKPLSNKTATDDTGGKDPRNV [PLD5]	4.78 ± 0.17	4.89 ± 0.19	–	–
FKPKLYKGDRGLPLEGSAKGKVQA [RBBP5]	–	–	3.96 ± 0.44	3.98 ± 0.27
FLDLLSVFSDTATPDIKSHYAFRI [CIB1]	–	–	2.86 ± 0.6	2.85 ± 0.76
FLGLFFIVRFLESNWFVWVTQMNH [FADS1]	–	–	3.69 ± 0.72	3.25 ± 0.32
FLKNTEVSSMECEKNLYWICNKPY [CD69]	–	–	2.32 ± 0.61	2.27 ± 0.21
FNMMEQKKRVSMILQSPAFCEELE [ADD1]	–	–	3.27 ± 0.088	3.4 ± 0.11
FPDLNTYIYYNEKYGGPNHHLPLP [CPN1]	–	–	2.15 ± 0.17	2.42 ± 0.096
FPLMTIEEFAAGPAQSGILSDREV [BTBD1]	–	–	3.83 ± 0.33	3.98 ± 0.18
FPSLHQSLPQNQCYMATTKSQTAC [EHMT1]	–	–	3.06 ± 0.15	3.47 ± 0.2
FQAPCQRCGKFLQDGLPPTWRDFR [MED27]	–	–	2.56 ± 0.72	2.28 ± 0.33
FQGQKTELNNCISMLVAGNDRVQT [TRIM63]	–	–	3.13 ± 0.15	3.41 ± 0.42
FQNAERAFKAAALIQRWYRRYVAR [PPEF2]	–	–	–	5.54 ± 0.23
FRALKRPLQFLGLFENSLCRLTHI [ZER1]	–	–	2.62 ± 0.4	2.46 ± 0.54
FSDLNSTRGDADMYDLPKKEDALL [EMD]	–	–	4.77 ± 0.24	4.9 ± 0.05
FSLRVHTGCHKKLGPEARRPRTRW	–	–	2.66 ± 0.28	3.06 ± 0.094
FSVAPHETQTQRGGEFQCGLEAAS [RNF180]	–	–	3.37 ± 0.41	3.36 ± 0.14
FTEAMTHFPASPFWSVMFFLMLIN [SLC6A17]	–	–	2.36 ± 0.23	2.14 ± 0.56
FTKNNFFVEKNPTIVNFPITNVDL [USP39]	–	–	2.98 ± 0.52	2.7 ± 0.29
FVMFLCLADYLVPILAPRIFGSNK [ARL6IP1]	–	–	3.21 ± 0.48	3.17 ± 0.62
FVQVKGNFARLQTCISELRMLQRE [M1AP]	–	–	2.47 ± 0.75	2.11 ± 0.22

Sequence	protein stability index [1]	protein stability index [2]	protein stability index [3]	protein stability index [4]
FVRGQEFKAHKSVLAARSPVFNAM [SPOPL]	–	–	2.66 ± 0.45	2.83 ± 0.34
GACYGDDACFVARHRSADVLGVAD [PPTC7]	–	–	4.18 ± 0.34	4.817 ± 0.045
GAEQPPDLHCVLVTNPHSSQWKDP [GADD45A]	–	–	4.29 ± 0.2	4.44 ± 0.12
GAFDSQSTVKDCATIFALSTMTSS [ATL3]	–	–	3.01 ± 0.25	3.19 ± 0.27
GAIFCPPCYDVRYAPSCAKCKKKI [PDLIM7]	–	–	3.16 ± 0.24	3.45 ± 0.34
GARAALNEIESRHRELLRLESRIR [STX11]	–	–	3.46 ± 0.26	3.72 ± 0.35
GDDSDLSEGFESDSSHDSARASEG [SMG5]	–	–	5.47 ± 0.3	5.48 ± 0.13
GDLQDTKENREEARFQDKQYSSHH [CHGB]	–	–	5.18 ± 0.21	5.02 ± 0.35
GEGTFGKVVECLDHARGKSQVALK [CLK3]	–	–	4.45 ± 0.33	4.66 ± 0.082
GEGTGSPPKWQIGEQEFEALMRML [ADD1]	–	–	3.29 ± 0.45	3.2 ± 0.31
GEKPFTCHECGKKFSQNSHLIKHR [ZNF75A]	–	–	3.44 ± 0.35	3.9 ± 0.56
GELRSKSGHKLYIFLFQDILVLTR [NET1]	–	–	2.5 ± 0.66	1.75 ± 0.27
GELSQARGQEPARADQLCQQELRE [PRPH]	–	–	5.26 ± 0.56	5.56 ± 0.085
GETDEVTKTEDRELVLRKDCPKIV [ZSCAN9]	–	–	5.48 ± 0.14	5.44 ± 0.24
GGAGKEGVRVNNRFELINIDDLED [TCF25]	–	–	4.82 ± 0.49	4.91 ± 0.28
GGDHRYVNNYTNSFGGEWSAPDTM [TRIM29]	–	–	3.51 ± 0.44	3.51 ± 0.32
GGGGGGGGKSGGIVISPFRLEELT [CCDC6]	–	–	3.34 ± 0.12	3.59 ± 0.41
GGGVATSPMLIVFHGKYSTINPLW [GLT8D2]	–	–	3.02 ± 1.3	2.36 ± 0.56
GGKYLGRTKVVKPYSTVDNPVYYG [EFHC1]	–	–	2.87 ± 0.33	2.97 ± 0.33
GGMQALGLHLTDPSQRLVQNCLWT [CTNNB1]	–	–	2.11 ± 0.13	2.1 ± 0.44
GGRALVVRKVPPGYSIKVFDFERS [SMAD6]	–	–	2.52 ± 0.33	2.37 ± 0.51
GGRRPGTSPALLQGTAEEDHVDLS [CDKN1A]	–	–	5.46 ± 0.23	5.33 ± 0.18
GGYFKARLKFPIDYPYSPPAFRFL [CDC34]	–	–	2.82 ± 0.33	2.58 ± 0.51

Sequence	protein stability index [1]	protein stability index [2]	protein stability index [3]	protein stability index [4]
GHISLRRENSSDSPKELKRRNSSS [DLC1]	–	–	5.03 ± 0.27	5.23 ± 0.15
GHVLLTDSEFSMQEPMVPAKLGTQ [PPFIA4]	–	–	4.31 ± 0.1	3.94 ± 0.26
GHWTNVTPMATKRSGAGVALLNDH [KLHL12]	–	–	3.48 ± 0.079	3.62 ± 0.085
GIFQAMCLLICAEMYQVSRLQHIC [RHOBTB3]	–	–	2.99 ± 0.59	3.09 ± 0.34
GIGYNGMPNGCSDDVLPWRRTAEN [DCTD]	–	–	3.03 ± 0.24	2.87 ± 0.1
GKGFRDRNVTGTPLTGDKDDEEVD [ADAMTSL2]	–	–	5.59 ± 0.21	5.51 ± 0.34
GKPLAGIYRKREEKRNAGNAVRSA [KMT5A]	–	–	4.24 ± 0.35	4.39 ± 0.19
GLDFLHANCIVHRDLKPENILVTS [CDK4]	–	–	2.49 ± 0.23	2.61 ± 0.4
GLDIGAQGEPLGYRQDDPSYRSFH [CTNNB1]	–	–	4.14 ± 0.12	4.22 ± 0.19
GLDPEPLPLMDLCRRSIRSALGRQ [SPSB4]	–	–	3.79 ± 0.23	3.75 ± 0.18
GLFAVGEHTGEVRTARALLDRDAL [PCDHGA10]	–	–	3.84 ± 0.57	3.81 ± 0.29
GLGNIWRFPYLCQKNGGGAYLVPY [SLC6A17]	–	–	2.44 ± 0.43	2.54 ± 0.49
GLVKKYMNSLLIGELSPEQPSFEP [FADS1]	–	–	2.25 ± 0.089	2.34 ± 0.45
GMEGDWSWVDDTPFNKVQSARFWI [CD207]	–	–	1.82 ± 0.3	2.25 ± 0.32
GMGLTGTMGMGMPNIAMTSGTVQP [CLINT1]	–	–	3.84 ± 0.17	3.69 ± 0.13
GPWSCENFNPLLVAGGVAVAAIAL [CEND1]	–	–	3.34 ± 0.4	2.58 ± 0.9
GRKPERRRLKTTRLKEYTIKSHSS [DAPK3]	–	–	3.92 ± 0.17	4.06 ± 0.29
GRLGRWLRSTRFSGSLDRLRETRV [PCDHGC5]	–	–	3.34 ± 0.18	3.3 ± 0.36
GRLYVHPDSPATGAHWMRQLVSFQ [TBX5]	–	–	2.32 ± 0.26	2.34 ± 0.2
GRTCITDLQLTVGGAQASGTLIGV [MFSD9]	–	–	2.33 ± 0.31	2.04 ± 0.3
GSAEKQAGEAHMAADGETNGSCEN [EHMT1]	–	–	5.49 ± 0.37	5.6 ± 0.2
GSENRNHRLLNMARNNNDPGRLTE [RNF180]	–	–	4.08 ± 0.22	4.26 ± 0.24
GSGADRIYDLNIPAFVKFAYVAER [NCK2]	–	–	2.35 ± 0.29	2.36 ± 0.13

Sequence	protein stability index [1]	protein stability index [2]	protein stability index [3]	protein stability index [4]
GSLDNAHHVPGGGNVKIDSQKLNF [MAP2]	–	–	4.27 ± 0.18	4.43 ± 0.32
GSLGSRAEPAPRAREGGGCGRSEV [SMAD6]	–	–	4.84 ± 0.15	4.92 ± 0.11
GSNGYILNKPALQAQPLRTTSTLA [EHMT1]	–	–	3.59 ± 0.36	3.44 ± 0.17
GSTLIFYKYCDHENAAFKDVALVL [TOR1AIP2]	–	–	2.43 ± 0.59	2.58 ± 0.73
GSYGGFASAPTTPCQKSPNGVRVF [TRIM9]	–	–	3.17 ± 0.18	3.25 ± 0.24
GTMGMAPLGNTPMMNQSMMGMNMN [CLINT1]	–	–	3.39 ± 0.45	3.52 ± 0.21
GTPKDHDSPENGADSFESSDSLLQ [ETS2]	–	–	5.46 ± 0.23	5.47 ± 0.23
GVEEIKGHPFFEGVDWEHIRERPA [STK38L]	–	–	3.97 ± 0.8	4.32 ± 0.37
GVEPAPWAQLEAPARLLLQALQAG [FANCE]	–	–	2.89 ± 0.27	2.92 ± 0.38
GWVSGQLRYSVVEESEPGTLVGNV [PCDHGC5]	–	–	3.03 ± 0.24	3.07 ± 0.22
HARARDQGQPAMEGHCVIQVDVGD [PCDHGC5]	–	–	4.61 ± 0.068	4.58 ± 0.23
HEEEVSVLRCQLGDRLNVEVDAAP [KRT36]	–	–	5.17 ± 0.26	4.95 ± 0.32
HFSSIPDAFWWAVVSMTTVGYGDM [KCNA1]	–	–	3.56 ± 0.34	3.12 ± 0.29
HHLGSGSGAGGTGGPAGQAGRGGA [MYOZ1]	–	–	4.9 ± 0.35	5.01 ± 0.33
HKRISAFRALQHSYLHKDEGNPE [CDK4]	4.15 ± 0.26	4.04 ± 0.47	–	–
HKRPHVDFFLEVVSQWYELVVFTA [CTDNEP1]	–	–	3.06 ± 0.76	2.77 ± 1.2
HLGKEQSRRDDLEALGHMFMYFLR [CSNK1G1]	–	–	2.61 ± 0.24	2.25 ± 0.26
HLIRHQITHTREEQPHGRSRRREQ [ZNF8]	–	–	4.57 ± 0.13	4.75 ± 0.051
HMEALEIAANLENKATNTDHLTTV [C8orf76]	–	–	4.76 ± 0.18	4.78 ± 0.23
HMSLEKDIAAMTNSLFIDRQKCMA [TEKT4]	–	–	3 ± 0.18	3.02 ± 0.23
